According to article PMC11681983:

Experiments:
VEGF [1] = target: VEGF (UniProt P15692); assay: ELISA; direct binding ELISA to IL-17A or VEGF, measured in duplicate, n = 2; who was coated is not told
VEGF [2] = target: VEGF (UniProt P15692)
VEGF [3] = target: VEGF (UniProt P15692); assay: SPR; Biacore, n = 3

VEGF, sequence (P15692 whole entry): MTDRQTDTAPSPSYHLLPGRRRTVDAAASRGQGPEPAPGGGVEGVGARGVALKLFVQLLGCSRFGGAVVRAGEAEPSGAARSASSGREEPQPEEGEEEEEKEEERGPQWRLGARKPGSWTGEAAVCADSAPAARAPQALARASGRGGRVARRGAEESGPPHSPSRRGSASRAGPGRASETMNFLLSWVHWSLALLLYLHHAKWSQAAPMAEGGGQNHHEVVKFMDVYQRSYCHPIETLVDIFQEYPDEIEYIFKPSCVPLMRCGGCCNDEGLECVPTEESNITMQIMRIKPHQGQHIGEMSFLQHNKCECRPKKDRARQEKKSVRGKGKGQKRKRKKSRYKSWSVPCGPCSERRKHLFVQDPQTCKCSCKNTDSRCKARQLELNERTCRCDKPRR

B1: bispecific fusion protein 17V05 (bispecific antibody, V domains shown)
VH: EVQLVESGGGLVQPGGSLRLSCAASGFTFSSFDMSWGRQAPGKRLEWVAFMSSGGSTYYPDSVKGRFTISRDNSKNTLYLQMNSLRAEDTAVYYCARGERYGSYWGQGTLVTVSS
VL: DIQMTQSPSSLSASVGDRVTITCKASDHINNWLAWYQQKPGKAPKLLISGATSLETGVPSRFSGSGSGTDYTLTISSLQPEDFATYYCQQYWSTPFTFGSGTKLEIK
EC50 (VEGF [1]): 0.37 nM
luciferase signal of KDR/NFAT-RE HEK293 reporter cells with 30 ng/mL VEGF; blocks signalling of VEGF through KDR (VEGF [2]): 0.26 nM
Kd (VEGF [3]): 0.011 nM
